We go through three molecules from patent publication US20210032352A1 (ANTERA THERAPEUTICS, published 2021).

The target of one test is T1, 85BSA (Bos taurus, UniProt P02769).
T1 construct: also called bovine serum albumin
The test is described as follows: ELISA of the IgG on hLRP6, mLRP6, mLRP5, Fc and BSA. On the technique in general: An ELISA detects its analyte on a solid surface through an enzyme-linked reagent.

For test [1], the target named is T2, mouse LRP6 ECD, Fc-tagged (mouse, UniProt O88572 20-1370).
T2 construct: extracellular domain; Bought; not shown: Fc tag of the purchased fusion
T2 sequence (looked up): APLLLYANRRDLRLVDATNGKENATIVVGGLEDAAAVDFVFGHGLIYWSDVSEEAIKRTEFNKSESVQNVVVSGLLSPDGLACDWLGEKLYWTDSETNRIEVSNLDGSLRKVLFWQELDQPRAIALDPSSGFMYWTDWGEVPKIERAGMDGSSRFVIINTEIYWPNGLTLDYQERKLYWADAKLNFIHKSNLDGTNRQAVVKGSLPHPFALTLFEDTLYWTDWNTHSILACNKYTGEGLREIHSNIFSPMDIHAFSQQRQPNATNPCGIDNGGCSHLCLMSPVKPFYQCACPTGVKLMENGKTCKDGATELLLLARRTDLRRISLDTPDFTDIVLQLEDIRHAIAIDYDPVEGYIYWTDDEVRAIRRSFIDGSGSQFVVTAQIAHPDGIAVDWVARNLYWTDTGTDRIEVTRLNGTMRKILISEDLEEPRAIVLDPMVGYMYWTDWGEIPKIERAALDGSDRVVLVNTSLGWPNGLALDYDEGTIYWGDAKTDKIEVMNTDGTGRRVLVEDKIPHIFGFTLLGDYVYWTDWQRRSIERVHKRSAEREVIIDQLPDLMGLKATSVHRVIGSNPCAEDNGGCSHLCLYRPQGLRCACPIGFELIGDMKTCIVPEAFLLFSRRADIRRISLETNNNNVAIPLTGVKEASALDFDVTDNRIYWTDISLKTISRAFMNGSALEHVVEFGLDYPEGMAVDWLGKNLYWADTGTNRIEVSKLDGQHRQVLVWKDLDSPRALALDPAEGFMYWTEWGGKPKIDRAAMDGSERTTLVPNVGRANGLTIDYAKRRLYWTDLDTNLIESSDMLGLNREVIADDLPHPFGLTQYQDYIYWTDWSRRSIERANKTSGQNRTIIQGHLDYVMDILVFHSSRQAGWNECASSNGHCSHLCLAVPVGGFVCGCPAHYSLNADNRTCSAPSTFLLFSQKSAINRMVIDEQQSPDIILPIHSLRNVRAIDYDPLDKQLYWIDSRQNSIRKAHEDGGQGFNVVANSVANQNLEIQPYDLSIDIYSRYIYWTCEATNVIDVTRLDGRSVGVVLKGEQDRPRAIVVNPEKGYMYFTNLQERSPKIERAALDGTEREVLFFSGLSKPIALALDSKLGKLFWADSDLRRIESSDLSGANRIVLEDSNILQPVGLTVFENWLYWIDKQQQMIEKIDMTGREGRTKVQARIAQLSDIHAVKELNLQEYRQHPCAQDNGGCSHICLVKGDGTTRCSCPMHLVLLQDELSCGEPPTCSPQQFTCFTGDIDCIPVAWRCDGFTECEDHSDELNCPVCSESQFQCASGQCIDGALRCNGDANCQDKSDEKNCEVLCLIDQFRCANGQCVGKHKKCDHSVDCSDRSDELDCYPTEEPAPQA
The description is as above.

Test [2] deals with T3, mouse LRP5 ECD, Fc-tagged (mouse, UniProt Q91VN0 31-1383).
T3 construct: extracellular domain; Bought; not shown: Fc tag of the purchased fusion
T3 sequence (looked up): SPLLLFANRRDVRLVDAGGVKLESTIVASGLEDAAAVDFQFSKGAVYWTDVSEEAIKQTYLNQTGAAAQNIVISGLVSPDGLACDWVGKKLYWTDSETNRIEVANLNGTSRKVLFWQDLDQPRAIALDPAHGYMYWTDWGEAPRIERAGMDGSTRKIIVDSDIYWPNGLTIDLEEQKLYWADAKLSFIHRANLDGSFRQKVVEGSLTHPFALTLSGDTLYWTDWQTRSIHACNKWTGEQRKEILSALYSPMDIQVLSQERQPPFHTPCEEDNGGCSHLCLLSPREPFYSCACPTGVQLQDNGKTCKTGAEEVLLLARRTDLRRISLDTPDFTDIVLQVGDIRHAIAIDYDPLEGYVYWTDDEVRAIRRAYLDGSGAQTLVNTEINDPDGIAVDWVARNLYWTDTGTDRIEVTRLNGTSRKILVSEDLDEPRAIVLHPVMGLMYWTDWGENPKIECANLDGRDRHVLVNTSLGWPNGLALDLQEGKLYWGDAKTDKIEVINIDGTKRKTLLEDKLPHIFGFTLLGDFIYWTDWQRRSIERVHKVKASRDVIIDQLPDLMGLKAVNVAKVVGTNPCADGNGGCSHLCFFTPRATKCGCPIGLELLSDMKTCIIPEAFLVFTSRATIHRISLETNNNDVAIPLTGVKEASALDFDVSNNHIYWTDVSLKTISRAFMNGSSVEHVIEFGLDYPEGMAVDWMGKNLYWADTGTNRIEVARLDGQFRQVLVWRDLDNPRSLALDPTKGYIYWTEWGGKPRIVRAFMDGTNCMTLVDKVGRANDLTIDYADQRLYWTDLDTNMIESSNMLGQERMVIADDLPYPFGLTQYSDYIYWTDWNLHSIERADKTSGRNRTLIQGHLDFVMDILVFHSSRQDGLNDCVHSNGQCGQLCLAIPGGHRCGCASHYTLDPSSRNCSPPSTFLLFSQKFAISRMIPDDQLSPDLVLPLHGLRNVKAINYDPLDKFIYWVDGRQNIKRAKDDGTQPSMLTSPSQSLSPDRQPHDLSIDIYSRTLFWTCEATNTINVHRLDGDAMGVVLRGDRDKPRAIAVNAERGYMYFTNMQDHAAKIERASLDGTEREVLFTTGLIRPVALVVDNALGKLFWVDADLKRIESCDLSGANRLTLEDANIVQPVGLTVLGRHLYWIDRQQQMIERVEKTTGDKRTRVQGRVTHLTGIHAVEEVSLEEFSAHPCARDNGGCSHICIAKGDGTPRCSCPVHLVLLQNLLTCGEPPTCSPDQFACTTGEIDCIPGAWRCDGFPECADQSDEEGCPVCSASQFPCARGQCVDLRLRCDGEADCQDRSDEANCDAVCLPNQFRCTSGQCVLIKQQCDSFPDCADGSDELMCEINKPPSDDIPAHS
Described as above.

The target of another test is FZD7 CRD, Fc-tagged (human, UniProt O75084 33-185). The test is described as follows: kinetic table of the Fab; KD marked '**…'; the printed KD is not kd/ka of the same column; method not named for this figure.
A further test addresses T4, FZD1 CRD, Fc-tagged (human, UniProt Q9UP38 70-250).
T4 construct: domain: CRD; Bought; not shown: Fc tag of the purchased fusion
Described as above.

The next test has as its target T5, FZD2 CRD, Fc-tagged (human, UniProt Q14332 24-190).
T5 construct: domain: CRD; Bought; not shown: Fc tag of the purchased fusion
The test is described as above.

The target in a further test is T6, FZD5 CRD, Fc-tagged (human, UniProt Q13467 27-167).
T6 construct: domain: CRD; Bought; also called FZD5 ECD; not shown: Fc tag of the purchased fusion
T6 sequence (looked up): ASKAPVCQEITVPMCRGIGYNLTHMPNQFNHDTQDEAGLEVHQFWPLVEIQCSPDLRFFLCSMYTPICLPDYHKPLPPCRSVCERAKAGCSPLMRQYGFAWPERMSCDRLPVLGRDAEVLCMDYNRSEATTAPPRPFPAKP
Described as above.

The target in the next test is T7, FZD8 CRD, Fc-tagged (human, UniProt Q9H461 28-158).
T7 construct: domain: CRD; Bought; not shown: Fc tag of the purchased fusion
T7 sequence (looked up): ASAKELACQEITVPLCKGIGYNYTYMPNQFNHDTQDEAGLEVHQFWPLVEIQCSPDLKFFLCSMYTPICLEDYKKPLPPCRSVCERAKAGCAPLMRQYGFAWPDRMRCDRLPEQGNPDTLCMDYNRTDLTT
The description is as above.

In general, Kd refers to a measure of binding affinity in units of concentration. Higher therefore signals lower affinity.

T1 sequence (P02769 25-607 limits assumed): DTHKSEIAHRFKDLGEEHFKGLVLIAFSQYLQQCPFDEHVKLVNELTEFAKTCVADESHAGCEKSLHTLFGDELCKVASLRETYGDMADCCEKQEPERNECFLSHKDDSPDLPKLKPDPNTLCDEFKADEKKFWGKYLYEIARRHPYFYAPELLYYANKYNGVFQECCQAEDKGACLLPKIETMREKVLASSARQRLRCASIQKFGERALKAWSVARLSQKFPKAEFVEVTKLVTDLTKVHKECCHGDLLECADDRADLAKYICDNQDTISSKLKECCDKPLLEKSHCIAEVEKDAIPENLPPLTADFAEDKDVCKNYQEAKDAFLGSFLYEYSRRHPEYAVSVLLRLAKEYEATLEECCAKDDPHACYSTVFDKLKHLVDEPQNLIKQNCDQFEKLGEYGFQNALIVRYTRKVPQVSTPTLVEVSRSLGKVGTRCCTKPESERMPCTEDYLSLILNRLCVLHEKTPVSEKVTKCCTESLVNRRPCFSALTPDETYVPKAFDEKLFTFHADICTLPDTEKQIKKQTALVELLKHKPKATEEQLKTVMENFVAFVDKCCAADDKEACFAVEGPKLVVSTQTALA
T4 sequence (Q9UP38 70-250): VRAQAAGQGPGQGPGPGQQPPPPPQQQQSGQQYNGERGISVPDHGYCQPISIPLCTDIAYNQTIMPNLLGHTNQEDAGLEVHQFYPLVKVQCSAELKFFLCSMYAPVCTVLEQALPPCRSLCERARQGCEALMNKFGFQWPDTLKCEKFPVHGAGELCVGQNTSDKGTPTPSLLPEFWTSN

B1: LRP6 antibody 2539 (antibody, V domains shown)
VH: EVQLVESGGGLVQPGGSLRLSCAASGFNISYSSIHWVRQAPGKGLEWVAYISSYYGYTYYADSVKGRFTISADTSKNTAYLQMNSLRAEDTAVYYCARAHYFPWAGAMDYWGQGTLVTVSS
VL: DIQMTQSPSSLSASVGDRVTITCRASQSVSSAVAWYQQKPGKAPKLLIYSASSLYSGVPSRFSGSRSGTDFTLTISSLQPEDFATYYCQQYSWGPFTFGQGTKVEIK
notes: also called L6^3
Consider B1, for which the values for the binding result (with 85BSA; in test [1]; in test [2]) were “no binding”, “binds” and “no binding”, respectively.

B2: LRP6 antibody 2542 (antibody, V domains shown)
VH: EVQLVESGGGLVQPGGSLRLSCAASGFNISSYYIHWVRQAPGKGLEWVASIYSSYGYTSYADSVKGRFTISADTSKNTAYLQMNSLRAEDTAVYYCARTVRGSKKPYFSGWAMDYWGQGTLVTVSS
VL: DIQMTQSPSSLSASVGDRVTITCRASQSVSSAVAWYQQKPGKAPKLLIYSASSLYSGVPSRFSGSRSGTDFTLTISSLQPEDFATYYCQQYYWPITFGQGTKVEIK
For the molecule B2, the binding result with 85BSA was “no binding”; in test [1] it was “binds”; in test [2] it was “no binding”.

B3: F^P - Fab (Fab, V domains shown)
VH: EVQLVESGGGLVQPGGSLRLSCAASGFNIGSSSIHWVRQAPGKGLEWVASIYSAFASTSYADSVKGRFTISADTSKNTAYLQMNSLRAEDTAVYYCARYHFPFGFALDYWGQGTLVTVSS
VL: DIQMTQSPSSLSASVGDRVTITCRASQSVSSAVAWYQQKPGKAPKLLIYSASSLYSGVPSRFSGSRSGTDFTLTISSLQPEDFATYYCQQGVYLFTFGQGTKVEIK
Turning to B3, the Kd with FZD7 CRD, Fc-tagged worked out at 0.142 nM; with FZD1 CRD, Fc-tagged, 0.177 nM; with FZD2 CRD, Fc-tagged it was 0.126 nM; with FZD5 CRD, Fc-tagged it was 0.11 nM; with FZD8 CRD, Fc-tagged, 0.109 nM.
